In US20200199241A1 (Chugai, published 2020) one finds relative binding activity data, which are given here for 9 molecules.

Experiment in all cases: SPR (Biacore);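 further: antibody variants captured on sensor chip, Fcγ receptor flowed over at 25 °C, bound receptor normalized to amount of captured antibody, expressed relative to reference antibody set as 100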
The target in one experiment is T1, human FcγRIIIa(F) (human, UniProt P08637 17-208, limits assumed).
T1 construct: also called FcgRIIIaF; allotype F158

Another experiment addresses T2, human FcγRIa (human, UniProt P12314 16-292, limits assumed).
T2 construct: also called FcgRIa; FcγRI (CD64)

The next experiment addresses T3, human FcγRIIb (human, UniProt P31994 43-217, limits assumed).
T3 construct: also called FcgRIIb
T3 sequence: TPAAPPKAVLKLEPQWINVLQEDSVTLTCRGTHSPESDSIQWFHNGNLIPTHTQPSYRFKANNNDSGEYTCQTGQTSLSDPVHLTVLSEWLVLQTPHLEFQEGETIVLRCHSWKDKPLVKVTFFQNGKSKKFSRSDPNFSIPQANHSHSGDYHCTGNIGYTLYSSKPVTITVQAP

The target of another experiment is T4, human FcγRIIa(H) (human, UniProt P12318 36-217).
T4 construct: also called FcgRIIaH; FcγRIIa type H
T4 sequence: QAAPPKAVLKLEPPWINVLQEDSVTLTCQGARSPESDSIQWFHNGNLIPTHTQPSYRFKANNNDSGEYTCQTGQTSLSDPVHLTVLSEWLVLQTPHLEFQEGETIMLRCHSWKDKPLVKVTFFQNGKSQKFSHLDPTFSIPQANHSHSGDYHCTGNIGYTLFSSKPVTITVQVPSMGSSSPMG

The next experiment deals with T5, human FcγRIIa(R) (human, UniProt P12318 36-217).
T5 construct: also called FcgRIIaR; FcγRIIa type R
T5 chain: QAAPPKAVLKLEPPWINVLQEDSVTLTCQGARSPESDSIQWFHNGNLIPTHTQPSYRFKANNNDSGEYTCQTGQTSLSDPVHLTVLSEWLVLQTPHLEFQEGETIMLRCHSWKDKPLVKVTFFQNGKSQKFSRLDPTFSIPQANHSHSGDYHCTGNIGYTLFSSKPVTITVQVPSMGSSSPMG

T2 sequence (P12314 16-292 limits assumed): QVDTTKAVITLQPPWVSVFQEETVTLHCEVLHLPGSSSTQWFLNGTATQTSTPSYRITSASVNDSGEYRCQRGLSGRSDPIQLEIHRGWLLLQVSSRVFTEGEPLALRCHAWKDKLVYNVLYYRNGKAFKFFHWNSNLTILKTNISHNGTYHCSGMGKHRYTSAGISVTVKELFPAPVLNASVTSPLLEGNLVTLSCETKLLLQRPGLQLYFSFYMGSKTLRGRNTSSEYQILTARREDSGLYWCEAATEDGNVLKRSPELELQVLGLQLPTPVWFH
T1 sequence (P08637 other isoform, or with tags, fused parts or gaps limits assumed): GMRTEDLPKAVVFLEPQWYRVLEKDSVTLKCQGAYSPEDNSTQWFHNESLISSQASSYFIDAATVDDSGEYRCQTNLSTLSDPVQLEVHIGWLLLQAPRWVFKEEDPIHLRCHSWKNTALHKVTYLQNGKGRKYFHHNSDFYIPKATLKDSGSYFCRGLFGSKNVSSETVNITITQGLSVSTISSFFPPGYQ

B1: GpH7-B3 variant G237H/GpL16-k0 (antibody, human IgG1)
heavy: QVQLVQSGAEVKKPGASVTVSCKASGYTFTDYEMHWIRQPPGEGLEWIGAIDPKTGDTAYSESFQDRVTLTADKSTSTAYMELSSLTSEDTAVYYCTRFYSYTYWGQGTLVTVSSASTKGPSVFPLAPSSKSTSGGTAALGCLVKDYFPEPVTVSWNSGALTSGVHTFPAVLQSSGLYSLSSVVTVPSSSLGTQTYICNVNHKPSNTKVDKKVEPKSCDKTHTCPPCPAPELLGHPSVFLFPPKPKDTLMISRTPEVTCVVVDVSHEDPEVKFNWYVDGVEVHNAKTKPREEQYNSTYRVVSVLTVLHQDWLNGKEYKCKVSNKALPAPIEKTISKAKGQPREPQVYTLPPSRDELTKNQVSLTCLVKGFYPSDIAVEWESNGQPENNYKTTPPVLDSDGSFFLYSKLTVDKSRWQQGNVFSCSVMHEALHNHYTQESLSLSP
light: DIVMTQSPLSLPVTPGEPASISCQASESLVHSNRNTYLHWYLQKPGQSPQLLIYKVSNRFSGVPDRFSGSGSGTDFTLKISRVEAEDVGVYYCSQNTHVPPTFGQGTKVEIE
notes: copies: 2 + 2
Take B1: the relative binding activity was 0 % of GpH7-B3/GpL16-k0 with human FcγRIIIa(F); 12 % of GpH7-B3/GpL16-k0 with human FcγRIa; 11 % of GpH7-B3/GpL16-k0 in the experiment with human FcγRIIb; 1 % of GpH7-B3/GpL16-k0 in the experiment with human FcγRIIa(H); 14 % of GpH7-B3/GpL16-k0 with human FcγRIIa(R).

B2: GpH7-B3 variant G237E/GpL16-k0 (antibody, human IgG1)
heavy: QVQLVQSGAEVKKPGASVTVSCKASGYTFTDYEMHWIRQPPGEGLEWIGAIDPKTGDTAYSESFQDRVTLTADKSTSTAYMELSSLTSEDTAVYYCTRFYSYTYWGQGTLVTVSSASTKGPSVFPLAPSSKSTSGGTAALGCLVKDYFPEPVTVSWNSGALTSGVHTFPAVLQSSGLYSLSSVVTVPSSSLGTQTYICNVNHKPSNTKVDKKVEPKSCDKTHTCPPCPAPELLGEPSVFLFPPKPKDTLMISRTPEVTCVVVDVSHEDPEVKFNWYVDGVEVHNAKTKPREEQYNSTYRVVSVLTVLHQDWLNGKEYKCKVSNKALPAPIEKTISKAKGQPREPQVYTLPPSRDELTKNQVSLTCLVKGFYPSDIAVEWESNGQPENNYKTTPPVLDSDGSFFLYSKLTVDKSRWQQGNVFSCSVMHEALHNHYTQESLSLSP
light: DIVMTQSPLSLPVTPGEPASISCQASESLVHSNRNTYLHWYLQKPGQSPQLLIYKVSNRFSGVPDRFSGSGSGTDFTLKISRVEAEDVGVYYCSQNTHVPPTFGQGTKVEIE
notes: copies: 2 + 2
As for B2, the relative binding activity in the experiment with human FcγRIIIa(F) is 0 % of GpH7-B3/GpL16-k0; in the experiment with human FcγRIa, 18 % of GpH7-B3/GpL16-k0; in the experiment with human FcγRIIb it was 18 % of GpH7-B3/GpL16-k0; with human FcγRIIa(H) it was 1 % of GpH7-B3/GpL16-k0; with human FcγRIIa(R) it was 23 % of GpH7-B3/GpL16-k0.

B3: GpH7-B3 variant G236Y/GpL16-k0 (antibody, human IgG1)
heavy: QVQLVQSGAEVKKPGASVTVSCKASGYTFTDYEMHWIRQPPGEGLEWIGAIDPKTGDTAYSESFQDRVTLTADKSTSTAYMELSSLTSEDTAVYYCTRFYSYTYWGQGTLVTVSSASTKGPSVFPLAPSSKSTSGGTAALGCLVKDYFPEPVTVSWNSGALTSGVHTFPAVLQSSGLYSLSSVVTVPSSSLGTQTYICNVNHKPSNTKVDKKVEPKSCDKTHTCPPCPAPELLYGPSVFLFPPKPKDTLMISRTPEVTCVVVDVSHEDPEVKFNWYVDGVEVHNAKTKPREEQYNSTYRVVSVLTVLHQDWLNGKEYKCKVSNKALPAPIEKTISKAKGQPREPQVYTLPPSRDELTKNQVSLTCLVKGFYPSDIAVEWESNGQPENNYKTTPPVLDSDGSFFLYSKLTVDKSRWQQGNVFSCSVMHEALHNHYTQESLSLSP
light: DIVMTQSPLSLPVTPGEPASISCQASESLVHSNRNTYLHWYLQKPGQSPQLLIYKVSNRFSGVPDRFSGSGSGTDFTLKISRVEAEDVGVYYCSQNTHVPPTFGQGTKVEIE
notes: copies: 2 + 2
Turning to B3, the relative binding activity with human FcγRIIIa(F) was 39 % of GpH7-B3/GpL16-k0; with human FcγRIa, 76 % of GpH7-B3/GpL16-k0; with human FcγRIIb, 16 % of GpH7-B3/GpL16-k0; in the experiment with human FcγRIIa(H), 86 % of GpH7-B3/GpL16-k0; in the experiment with human FcγRIIa(R), 22 % of GpH7-B3/GpL16-k0.

B4: GpH7-B3 variant G237T/GpL16-k0 (antibody, human IgG1)
heavy: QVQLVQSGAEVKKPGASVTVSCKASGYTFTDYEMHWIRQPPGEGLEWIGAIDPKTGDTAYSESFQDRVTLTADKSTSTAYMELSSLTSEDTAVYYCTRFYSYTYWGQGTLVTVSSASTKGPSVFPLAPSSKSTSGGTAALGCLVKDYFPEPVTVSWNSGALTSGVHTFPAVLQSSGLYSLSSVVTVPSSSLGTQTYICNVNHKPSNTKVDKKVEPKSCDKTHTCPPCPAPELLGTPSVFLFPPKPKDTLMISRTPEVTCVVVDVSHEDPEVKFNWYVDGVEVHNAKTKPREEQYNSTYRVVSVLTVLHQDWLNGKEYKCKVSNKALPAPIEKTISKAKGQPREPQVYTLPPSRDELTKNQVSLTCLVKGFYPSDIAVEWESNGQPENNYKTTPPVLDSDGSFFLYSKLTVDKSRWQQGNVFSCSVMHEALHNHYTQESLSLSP
light: DIVMTQSPLSLPVTPGEPASISCQASESLVHSNRNTYLHWYLQKPGQSPQLLIYKVSNRFSGVPDRFSGSGSGTDFTLKISRVEAEDVGVYYCSQNTHVPPTFGQGTKVEIE
notes: copies: 2 + 2
For the molecule B4, the relative binding activity with human FcγRIIIa(F) was 2 % of GpH7-B3/GpL16-k0; with human FcγRIa it was 27 % of GpH7-B3/GpL16-k0; with human FcγRIIb it was 7 % of GpH7-B3/GpL16-k0; with human FcγRIIa(H) it was 2 % of GpH7-B3/GpL16-k0; with human FcγRIIa(R), 13 % of GpH7-B3/GpL16-k0.

B5: GpH7-B3 variant L234D/GpL16-k0 (antibody, human IgG1)
heavy: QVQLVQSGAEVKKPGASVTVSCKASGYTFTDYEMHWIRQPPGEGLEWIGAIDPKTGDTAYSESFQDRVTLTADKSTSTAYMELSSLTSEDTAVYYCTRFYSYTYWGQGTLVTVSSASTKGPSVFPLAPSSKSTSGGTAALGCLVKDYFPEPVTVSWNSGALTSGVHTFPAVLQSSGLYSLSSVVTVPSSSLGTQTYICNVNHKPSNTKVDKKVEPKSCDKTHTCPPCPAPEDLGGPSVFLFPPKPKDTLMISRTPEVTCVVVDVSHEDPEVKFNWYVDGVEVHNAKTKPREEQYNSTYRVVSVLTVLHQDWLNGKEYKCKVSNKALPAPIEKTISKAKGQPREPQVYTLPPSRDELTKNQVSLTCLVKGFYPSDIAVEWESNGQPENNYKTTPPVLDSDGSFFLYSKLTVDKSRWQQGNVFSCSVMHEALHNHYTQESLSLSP
light: DIVMTQSPLSLPVTPGEPASISCQASESLVHSNRNTYLHWYLQKPGQSPQLLIYKVSNRFSGVPDRFSGSGSGTDFTLKISRVEAEDVGVYYCSQNTHVPPTFGQGTKVEIE
notes: copies: 2 + 2
For the molecule B5, the relative binding activity with human FcγRIIIa(F) is 51 % of GpH7-B3/GpL16-k0; with human FcγRIa it was 31 % of GpH7-B3/GpL16-k0; with human FcγRIIb, 77 % of GpH7-B3/GpL16-k0; in the experiment with human FcγRIIa(H), 18 % of GpH7-B3/GpL16-k0; with human FcγRIIa(R), 51 % of GpH7-B3/GpL16-k0.

B6: GpH7-B3 variant L234A/GpL16-k0 (antibody, human IgG1)
heavy: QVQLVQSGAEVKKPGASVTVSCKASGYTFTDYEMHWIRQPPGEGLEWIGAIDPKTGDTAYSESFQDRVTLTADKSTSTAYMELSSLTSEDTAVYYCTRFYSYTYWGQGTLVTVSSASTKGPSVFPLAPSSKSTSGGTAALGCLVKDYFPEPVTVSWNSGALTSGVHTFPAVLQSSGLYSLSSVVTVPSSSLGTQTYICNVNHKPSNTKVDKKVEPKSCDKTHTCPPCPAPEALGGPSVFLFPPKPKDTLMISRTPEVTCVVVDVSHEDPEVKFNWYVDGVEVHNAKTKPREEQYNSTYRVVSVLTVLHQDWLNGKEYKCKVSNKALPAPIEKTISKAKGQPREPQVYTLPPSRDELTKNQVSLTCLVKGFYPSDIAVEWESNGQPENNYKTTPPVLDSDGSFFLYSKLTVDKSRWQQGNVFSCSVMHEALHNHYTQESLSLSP
light: DIVMTQSPLSLPVTPGEPASISCQASESLVHSNRNTYLHWYLQKPGQSPQLLIYKVSNRFSGVPDRFSGSGSGTDFTLKISRVEAEDVGVYYCSQNTHVPPTFGQGTKVEIE
notes: copies: 2 + 2
Turning to B6, the relative binding activity in the experiment with human FcγRIIIa(F) is 22 % of GpH7-B3/GpL16-k0; in the experiment with human FcγRIa it was 79 % of GpH7-B3/GpL16-k0; with human FcγRIIb it was 24 % of GpH7-B3/GpL16-k0; with human FcγRIIa(H), 25 % of GpH7-B3/GpL16-k0; in the experiment with human FcγRIIa(R), 26 % of GpH7-B3/GpL16-k0.

B7: GpH7-B3 variant G237R/GpL16-k0 (antibody, human IgG1)
heavy: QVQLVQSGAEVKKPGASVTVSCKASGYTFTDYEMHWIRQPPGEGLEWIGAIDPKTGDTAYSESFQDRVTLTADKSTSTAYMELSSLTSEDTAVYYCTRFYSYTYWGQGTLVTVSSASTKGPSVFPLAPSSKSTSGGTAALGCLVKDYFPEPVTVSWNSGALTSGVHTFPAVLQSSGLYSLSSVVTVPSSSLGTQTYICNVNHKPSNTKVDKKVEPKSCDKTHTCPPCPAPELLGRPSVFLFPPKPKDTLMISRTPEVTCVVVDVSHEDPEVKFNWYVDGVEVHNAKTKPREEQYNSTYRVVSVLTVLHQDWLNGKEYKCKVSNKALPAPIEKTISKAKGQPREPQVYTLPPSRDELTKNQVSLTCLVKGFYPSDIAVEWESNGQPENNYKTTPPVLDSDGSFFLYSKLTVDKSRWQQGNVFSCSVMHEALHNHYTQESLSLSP
light: DIVMTQSPLSLPVTPGEPASISCQASESLVHSNRNTYLHWYLQKPGQSPQLLIYKVSNRFSGVPDRFSGSGSGTDFTLKISRVEAEDVGVYYCSQNTHVPPTFGQGTKVEIE
notes: copies: 2 + 2
In the case of B7, the relative binding activity with human FcγRIIIa(F) is 0 % of GpH7-B3/GpL16-k0; in the experiment with human FcγRIa, 3 % of GpH7-B3/GpL16-k0; in the experiment with human FcγRIIb it was -1 % of GpH7-B3/GpL16-k0; with human FcγRIIa(H) it was -1 % of GpH7-B3/GpL16-k0; with human FcγRIIa(R), 0 % of GpH7-B3/GpL16-k0.

B8: GpH7-B3 variant G237L/GpL16-k0 (antibody, human IgG1)
heavy: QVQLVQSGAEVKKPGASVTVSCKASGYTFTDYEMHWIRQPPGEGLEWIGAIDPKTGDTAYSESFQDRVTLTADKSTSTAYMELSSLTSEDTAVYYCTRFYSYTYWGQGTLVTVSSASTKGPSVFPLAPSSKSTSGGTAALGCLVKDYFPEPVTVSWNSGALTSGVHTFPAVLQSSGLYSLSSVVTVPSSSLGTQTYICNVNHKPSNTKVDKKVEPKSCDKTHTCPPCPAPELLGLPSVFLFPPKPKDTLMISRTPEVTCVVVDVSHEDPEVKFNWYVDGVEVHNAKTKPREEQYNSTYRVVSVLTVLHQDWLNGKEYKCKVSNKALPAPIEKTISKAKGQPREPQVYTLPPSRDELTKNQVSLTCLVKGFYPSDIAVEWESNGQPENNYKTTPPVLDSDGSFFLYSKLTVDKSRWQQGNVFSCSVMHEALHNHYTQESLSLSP
light: DIVMTQSPLSLPVTPGEPASISCQASESLVHSNRNTYLHWYLQKPGQSPQLLIYKVSNRFSGVPDRFSGSGSGTDFTLKISRVEAEDVGVYYCSQNTHVPPTFGQGTKVEIE
notes: copies: 2 + 2
In the case of B8, the relative binding activity with human FcγRIIIa(F) was 0 % of GpH7-B3/GpL16-k0; in the experiment with human FcγRIa, 7 % of GpH7-B3/GpL16-k0; in the experiment with human FcγRIIb, 51 % of GpH7-B3/GpL16-k0; in the experiment with human FcγRIIa(H) it was 1 % of GpH7-B3/GpL16-k0; with human FcγRIIa(R), 58 % of GpH7-B3/GpL16-k0.

B9: GpH7-B3 variant G237I/GpL16-k0 (antibody, human IgG1)
heavy: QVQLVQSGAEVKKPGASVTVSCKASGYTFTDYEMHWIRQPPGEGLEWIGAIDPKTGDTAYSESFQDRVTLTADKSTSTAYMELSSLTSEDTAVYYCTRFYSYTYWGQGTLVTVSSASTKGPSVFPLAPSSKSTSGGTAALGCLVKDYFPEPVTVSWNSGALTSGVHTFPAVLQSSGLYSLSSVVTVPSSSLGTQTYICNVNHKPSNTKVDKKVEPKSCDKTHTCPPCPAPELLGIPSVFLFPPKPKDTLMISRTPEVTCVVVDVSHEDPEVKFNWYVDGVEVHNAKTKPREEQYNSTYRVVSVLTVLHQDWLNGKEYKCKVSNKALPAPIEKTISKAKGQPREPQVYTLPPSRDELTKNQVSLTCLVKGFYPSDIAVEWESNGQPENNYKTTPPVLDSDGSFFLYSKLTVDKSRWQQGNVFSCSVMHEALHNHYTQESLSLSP
light: DIVMTQSPLSLPVTPGEPASISCQASESLVHSNRNTYLHWYLQKPGQSPQLLIYKVSNRFSGVPDRFSGSGSGTDFTLKISRVEAEDVGVYYCSQNTHVPPTFGQGTKVEIE
notes: copies: 2 + 2
As to B9, the relative binding activity in the experiment with human FcγRIIIa(F) is 2 % of GpH7-B3/GpL16-k0; with human FcγRIa it was 6 % of GpH7-B3/GpL16-k0; with human FcγRIIb, 29 % of GpH7-B3/GpL16-k0; with human FcγRIIa(H), 6 % of GpH7-B3/GpL16-k0; with human FcγRIIa(R), 69 % of GpH7-B3/GpL16-k0.
